Results on one substance are retold here after PMC10583499.

The target of the test is human NRP2 (v2, NM_003872.3), untagged, stably overexpressed on Expi293F cells (Expi293F-hNRP2) (human) (UniProt O60462). The test can be described thus: flow cytometry on cells. On the technique in general: Flow cytometry measures light scatter and fluorescence of single cells or particles in a stream.

Take “human Sema3F (amino acids 19 to 779), N-terminal 6xHis-Myc tag, R583A R586A (from UniProt Q13275 19-779) (ligand)”: the concentration for a half-maximal effect (EC50) is 5.7 nM.

Broadly, the EC50 is the concentration giving half of the maximal effect. Low values mean higher potency in that assay, high ones lower potency in that assay.
